“And” between values parts separate entries of the source, which are not always exact repeats. Equal values may be shown once.
Conditions: Escherichia coli (strain K12), pH 7, Potassium phosphate 50 mM, KCl 100 mM, reversible: yes

Chain of Cold shock protein CspA wild type, P0A9X9 (P0A9X9 whole entry): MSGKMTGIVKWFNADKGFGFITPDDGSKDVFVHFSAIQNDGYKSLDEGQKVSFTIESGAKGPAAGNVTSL

In the case of “Cold shock protein CspA wild type, P0A9X9”, the denaturant m value (10 °C, GdnHCl, Fluorescence) was 1.7 kcal/mol/M and 2.4 kcal/mol/M and 2.1 kcal/mol/M, the “denaturant midpoint (higher = more stable)” value (“denaturant midpoint” for short) (10 °C, GdnHCl, Fluorescence) was 1.8 M and 1.6 M and the unfolding free energy (10 °C, GdnHCl, Fluorescence) was 3.1 kcal/mol and 3.8 kcal/mol and 3.3 kcal/mol. The denaturant m value (10 °C, Urea, Fluorescence) was 0.59 kcal/mol/M and 0.66 kcal/mol/M and 0.64 kcal/mol/M, the “denaturant midpoint” value (10 °C, Urea, Fluorescence) was 4.9 M and 5 M and 4.5 M and the unfolding free energy (10 °C, Urea, Fluorescence) was 2.9 kcal/mol and 3.3 kcal/mol and 2.8 kcal/mol. The denaturant m value (25 °C, GdnHCl, CD) was 1.7 kcal/mol/M and 2.9 kcal/mol/M and 2.1 kcal/mol/M, the “denaturant midpoint” value (25 °C, GdnHCl, CD) was 1.5 M and 1.3 M and 1.6 M and the unfolding free energy (25 °C, GdnHCl, CD) was 2.4 kcal/mol and 3.7 kcal/mol and 3.3 kcal/mol. For the same substance, the denaturant m value (25 °C, GdnHCl, Fluorescence) was 2.2 kcal/mol/M and 2 kcal/mol/M, the “denaturant midpoint” value (25 °C, GdnHCl, Fluorescence) was 1.4 M and 1.6 M and the unfolding free energy (25 °C, GdnHCl, Fluorescence) was 3.1 kcal/mol and 3.2 kcal/mol and 3 kcal/mol. For the same substance, the denaturant m value (25 °C, Urea, CD) was 0.6 kcal/mol/M and 0.7 kcal/mol/M, the “denaturant midpoint” value (25 °C, Urea, CD) was 4 M and 4.5 M and 4.1 M and the unfolding free energy (25 °C, Urea, CD) was 2.6 kcal/mol and 3.1 kcal/mol. For the same substance, the denaturant m value (25 °C, Urea, Fluorescence) was 0.71 kcal/mol/M and 0.69 kcal/mol/M and 0.78 kcal/mol/M, the “denaturant midpoint” value (25 °C, Urea, Fluorescence) was 4.2 M and the unfolding free energy (25 °C, Urea, Fluorescence) was 3 kcal/mol and 2.9 kcal/mol and 3.2 kcal/mol.
